According to the supplement of paper PMC12042874:
± gives the uncertainty stated by the source.

test: amyloid nucleation score (Sup35N fusion, yeast selection) (log enrichment); library NNK3; higher = more nucleation; inactive = no reads after selection
Procedure, shortened: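 Peptides of 20 random codons fused to Sup35N were expressed in psi-negative yeast, induced 24 hours with 100 μM copper sulfate, then grown 7 days at 30°C on medium lacking adenine and uracil. Input and output plasmid inserts were Illumina-sequenced. Nucleation score is the DiMSum log enrichment of output over input reads, centred on the mode score of non-aggregating sequences, excluding sequences with under 100 input reads. Random libraries had three technical output replicates.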

Substance	amyloid nucleation score
HRYYCRLVFVEQTRDNIQPW	inactive
HSCMCKSLNASLMVDVRLPR	inactive
HSDFY	inactive
HSGETIYKVWMMGSRTEIAW	inactive
HSINV	inactive
HSLHMGRKAMQYEYTQPAGI	inactive
HSLHMKVCCWGSCEIFSMVR	inactive
HSLTGSHSFVGF	inactive
HSPKPKGWFDGTNSRDGKLY	inactive
HSRTGLGLHKLRMAVGFCIN	inactive
HSSIVWKRYSIYFVKNGGTF	inactive
HSYTVWLVNMS	2.35 ± 0.077
HTGLVILSVISPVTCPYWRK	0.329 ± 0.3
HVFLLHVMAFYFDLSCFG	inactive
HVFPVIAPYRLMLNLKWFVY	inactive
HVNSNPHVLASEVK	inactive
HWESGGKIWNKEYLAGLLPR	inactive
HWYVIKLSSNGCTFAVSLRV	inactive
HYADRTAWPSACASLYSHAL	inactive
HYCRNTGC	inactive
HYDMNFIARVPLSQSL	inactive
HYFSYIINTAMMRKAYILSG	0.543 ± 0.14
HYHSWFPTYSYSYYV	2.71 ± 0.08
HYILLG	inactive

Substance	amyloid nucleation score
HYLAIYGVGCCNFYSYTAVC	1.28 ± 0.085
HYWQYMFYSLHFVYRS	inactive
IAAQSRRVGRCDIASLQLLE	inactive
IAEDIRARPSVWDLMRSSAI	inactive
IALGRFTCNGIVVVSF	inactive
IALGWFVIRFDEVVKLFKMF	inactive
IAMWDAMCFYWKIMSGSIMV	inactive
IAPVFWITLYHNFTSRIDRF	1.44 ± 0.14
IARKQPLLSMATTSSQVFRA	inactive
IATDRSSKVLSFHT	inactive
IATIVCYRLDGYHVLSYAHT	inactive
IAYDWCQVSVTNFMSRSLMH	-0.04 ± 0.75
ICGMWGFDAMRITSWNVPNG	0.075 ± 0.29
ICQQCWTVT	inactive
ICRLGLLFIMTLRYYNVFVR	inactive
ICRLVLSNNF	inactive
ICTKSALYQTMLS	inactive
ICVLCSGIMKMCCAMGDLSV	1.36 ± 0.064
ICYRRPTSSMP	inactive
IDIVNL	inactive
IDKFVRFCIFSWCLMNGDVG	inactive
IDLVVSQVWQSTGAVVALWH	-0.301 ± 0.83
IDQRWYCALQCHCREEINCR	inactive
IDRGNSNRPCPDFTDCFYGR	inactive

Substance	amyloid nucleation score
IDSDMDKNS	inactive
IDSNE	inactive
IDVRATNPVRAVETD	inactive
IEDEFEAMSHCLECRNFRKL	inactive
IEFGYLGT	inactive
IEINCCSNFIGVCVDNLNL	2.57 ± 0.055
IFCVGVSLRQ	0.347 ± 0.3
IFFVYLLSANIGCYEWDVVP	0.821 ± 0.12
IFHRD	inactive
IFLCI	inactive
IFLIPYA	inactive
IFLNLLSRGFGLGRELKCRC	inactive
IFMLWPAD	inactive
IFNNYIIYTSYKEV	3.49 ± 0.077
IFNQLDLFCDRTLDGLRDAK	inactive
IFNRQFQKSIMRSWLNYESK	0.864 ± 0.13
IFPFFVVFGFDTYAGI	inactive
IFSMMLF	inactive
IFSRGEGLLRRMVSL	inactive
IFVCKRLMRGLVR	inactive
IFYDNADTSKMNHISH	inactive
IFYVGNTLIFFIYMNWNRTY	0.679 ± 0.24
IGDDGFVN	inactive
IGHGYMVDRWILRVVMVVAL	inactive

Substance	amyloid nucleation score
IGLSLGCVFVMDNVLNARN	1.55 ± 0.076
IGRTCMCLYSAVVFIRHGTT	inactive
IGVYWVLPPGFFGWQNTLMI	0.161 ± 0.56
IHHKLVDL	inactive
IHLGMWIRKQFY	0.985 ± 0.15
IIAPRLY	inactive
IIHLENMPICQGALIDGLAL	inactive
IIITVVGSCYSV	1.7 ± 0.071
IINFSYANAVVIVWLNISMG	1.08 ± 0.16
IIRSGGNGLCSTKYLSSHFL	inactive
IIRVGMLWVGKLLRRSWGEQ	inactive
IKFIPYYCYPCRLIRLRVKC	inactive
IKFRDVEGKTLVQKCSQIF	inactive
IKGQSLSNSVFWSGGLDLRV	inactive
IKLVIANCNYMMYVEMV	inactive
IKMGVRYGRNTVWTARCGSG	0.222 ± 0.6
IKQDVASSVFM	inactive
IKSERIWDM	inactive
IKSPLDFFNVYVMVLGNWQI	inactive
ILCAFTRVWCYTNGPYESGR	2.72 ± 0.053
ILIRITGAFYIMIINNRRLL	inactive
ILLLRGDGEACFNRVNDNSF	inactive
ILLMLSVQGNLLKRMRILSM	inactive
ILLRQKHVHNY	inactive

Substance	amyloid nucleation score
ILMELPRRRMWSLKALSLMY	inactive
ILRCVFRGYMYYVMGSFYLT	inactive
ILSCPSS	inactive
ILSNINFVRNSFCYYMINFI	inactive
ILTEYLPSTS	inactive
ILTKRTAAFDPLGLKNWERC	-0.398 ± 1.7
ILTLLCRFTYRDETPCLWTV	inactive
ILVHTHLSTLSIRHTASPMT	inactive
ILVLDSWYVACTTACKGTNK	-1.57 ± 2.5
ILVYLASLVTNFNYVHIPLG	0.969 ± 0.18
ILWLLILTFLNRRARCIEQN	-0.567 ± 0.51
IMCSGFFDTVKFGWSLLSFS	0.521 ± 0.24
IMILFI	0.13 ± 0.49
IMKACGDK	inactive
IMMFIPWTSYLKYRIIMDYS	inactive
IMMIDWWYMFGCYACLETCH	inactive
IMSRMYDDSFADLVCKHAVD	inactive
IMTVILSPLLTCNYFCCR	2.35 ± 0.085
IMWGYDSWFCSANHRSQFRY	-0.314 ± 0.98
IMYTRAYLFYTRDHCLFIRV	inactive
INCLRSLTNCINSCRPIIVL	inactive
INFSCLLLKHLFRWVRPYLS	inactive
INITLWWVTVEFNMSARVQI	inactive
